Results published in patent US6767538B2, “Recombinant antibacterial group IIA phospholipase A2 and methods of use thereof” (New York University, priority 1999, dated 2004).

Experiments:
[1] = system: S. aureus RN450; experiment: Bactericidal activity toward S. aureus RN450 in RPMI-1640 medium; assay type: cell-based, Staphylococcus aureus; conditions: FIG. 4, 10^6/ml, 1-500 ng/ml, 60 minutes
Description: The bactericidal activity of wild-type human and recombinant mutant human and rabbit Group IIA PLA2s against Staphylococcus aureus 52A (10^6 per ml)was determined. S. aureus was incubated with 0.01-100 nM of each Group IIA PLA2 and incubated at 37° C. for 2 hours in RPMI-1640 medium containing 10 mM HEPES, pH 7.4 and 1% (w/v) albumin. After incubation, bacterial viability was determined by measuring the colony forming ability of the bacteria in trypticase soy agar. Bacterial colonies were enumerated after 18-24 hours at 37° C. The results are expressed as the percentage of the colony forming units (CFU) of the original bacterial inoculum (i.e. at T=0).
S. aureus RN450 (10^6/ml) was incubated with 1-500 ng/ml of each Group IIA PLA2 at 37° C. for 60 minutes in RPMI-1640 medium containing 10 mM HEPES, pH 7.4 and 1% (w/v) albumin. Bacterial viability was determined as in Example 3.

[2] = system: S. aureus RN450 and two clinical isolates, strains 5A (MRSA) and 18; experiment: Bactericidal activity toward S. aureus RN450 and clinical isolates 5A and 18 in 70% pooled human sera; assay type: cell-based, Staphylococcus aureus; conditions: FIGS. 4 and 5; each of several strains; laboratory medium and 70% human sera, 90 minutes
Description: S. aureus RN450 and two clinical isolates, strains 5A (MRSA) and 18 (10^7/ml were incubated with 1-500 ng/ml of each Group IIA PLA2 at 37° C. for 90 minutes in 70% (v/v) pooled human sera diluted in Hanks' balanced salts solution and buffered with 10 mM HEPES, pH7.4.

[3] = system: Reynolds strain of Staphylococcus aureus; experiment: Efficacy of administered mutant PLA2 against S. aureus infection in vivo (i.p. infection in mice); parameters: species or system CD/1 mice
Description: Bacteria: Reynolds strain of Staphylococcus aureus (encapsulated; grown overnight on Columbia agar to maximize encapsulation as in experiments shown in Example 6).
Administration of bacteria: 2×10^7/ml in 0.2 ml of sterile RPMI supplemented with 10 mM HEPES (pH 7.4) and 1% bovine serum albumin. Intraperitoneal (i.p.) inoculation.
Adminstration of PLA2: 15 μg/0.2 ml of above medium i.p. approx. 10-15 min after inoculation of bacteria. Control animals received medium alone. Enzyme administered was Mutant [G72K.T103K] Group IIA PLA 2.
a) @ 30, 60, 120, and 240 min after infection, blood samples taken from tail vein from each of 4 animals in control and PLA2-treated groups. There were a total of 16 animals in each group; each animal was bled only once in this time period. Levels of bacteremia were assessed by measurement of bacterial CFU in blood.
b) @ 1 day after infection, 8 animals from each group were sacrificed. Blood was collected again to measure bacteremia and the peritoneal cavity was washed and inspected to look macroscopically for abscesses (none seen) and measure intraperitoneal bacteria by assay of CFU.
c) @ 6 days after infection, the remaining 8 animals from each group were sacrificed and infection in blood and peritoneal cavity was measured as above (still no abscesses seen). This animal model produces local and disseminated infection in control animals that is eventually self-limiting. The level of metastatic infection is greatest at approx. 6 days. In addition, kidneys were excised, weighed (no significant difference between animals within and between treatment groups) and homogenized to facilitate assay of bacterial CFU within infected kidney (i.e. representing metastatic infection).

[4] = system: S. aureus; experiment: Antibacterial activity by colony-forming ability of susceptible bacteria; assay type: cell-based, Staphylococcus aureus
Description: According to the present invention, the mutant human Group IIA PLA2 of the present invention is characterized by bactericidal activity against gram positive bacteria, such as S. aureus (see Example 3). Antibacterial activity of mutant human Group IIA PLA2 may be quantified by measuring the colony-forming ability of susceptible bacteria that have been incubated with or without increasing amounts of mutant human Group IIA PLA2. Typically, a suspension of 10^6 bacteria/ml (e.g., S. aureus) is exposed to 1-500 ng/ml of mutant human Group IIA PLA2 for 60-90 minutes at 37° C., after which the cells are mixed with molten agar and plated. After overnight growth, bacterial colonies are compared between mutant Group IIA PLA2-treated and untreated cultures.

[5] = system: Staphylococcus aureus; conditions: 100 ng/ml in biological fluids; 10^6 S. aureus cells/ml, incl. multi-drug resistant clinical isolates; cited from earlier work

B1: mutant human Group IIA PLA2: recombinant double mutant G72K.T103K human Group IIA phospholipase A2, protein SEQ. ID. NO. 2, expressed in E. coli (protein)
chain: NLVNFHRLIKLTTGKEAALSYGFYGCHCGVGGRGSPKDATDRCCVTHDCCYKRLEKRGCGTKFLSYKFSNSKSRITCAKQDSCRSQLCECDKAAATCFARNKKTYNKKYQYYSNKHCRGSTPRC
[1]
  antibacterial activity compared with wild-type human Group IIA PLA2: increased antibacterial activity
  bactericidal activity compared with WT rabbit Group IIA PLA2: nearly equivalent
[2]
  activity compared with wild-type human Group IIA PLA2: significantly more active
  activity compared with wild-type rabbit enzyme: essentially as active
[3]; 6 days after infection, controls two of 16
  abscesses seen: none were seen
[3]; Example 7
  treatment of S. aureus infection in vivo: effective
[3]; FIG. 10, 15 μg i.p., 30, 60, 120, 240 min after infection
  S. aureus bacteremia (CFU in blood): reduces
[3]; FIG. 11, 15 μg i.p., 6 days after infection
  metastatic kidney infection caused by S. aureus (CFU in kidney): reduces
[4]
  antibacterial activity relative to human WT homologue: 10 ×

B2: wild-type human Group IIA PLA2: wild-type human Group IIA 14 kDa phospholipase A2, comparator enzyme (protein, UniProt P14555 21-144, looked up)
Phospholipase A2, membrane …: NLVNFHRMIKLTTGKEAALSYGFYGCHCGVGGRGSPKDATDRCCVTHDCCYKRLEKRGCGTKFLSYKFSNSGSRITCAKQDSCRSQLCECDKAAATCFARNKTTYNKKYQYYSNKHCRGSTPRC
[5]
  S. aureus cells killed: greater than 99%
